B1: TMEM175 (parent)
chain: SCTIIFLASIFQLAMWTTALLHQA

Variants of: B1
Experiment: protein stability index of a GFP-peptide fusion (GPS, HEK-293T) (PSI 1-6); higher = more stable
Conditions: c terminus: a fixed tail appended
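Note: lentivirally expressed fusions sorted by FACS into six bins by GFP to DsRed ratio, PSI derived from sequencing read proportions per bin multiplied by bin number.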

Protein stability index, by site and new letter:
T17: P 2.64 | I 3.54 | W 4 | E 2.36 | V 2.22 | R 2.01 | S 2.31 | Y 2.83 | N 3.8 | D 3.83 | A 1.59 | K 2.94 | Q 2.52 | F 1.74 | H 4.62 | L 3.31
F11: R 5.97 | K 3.11 | W 2.6 | A 3.92 | I 2.56 | L 2.74 | Y 1.79 | C 2.29 | P 2.96 | S 2.19 | T 3.38 | V 2.09 | Q 3.1 | M 1.87 | D 2.62 | N 2.97 | E 3.04
L20: W 1.4 | R 3.39 | H 3.02 | F 2.74 | A 3.09 | S 3.1 | G 1.94 | N 3.09 | I 3.51 | M 3.22 | Y 3.22 | D 3.05 | P 1.81 | Q 3.1
I10: C 1.64 | P 2.65 | M 3.48 | D 1.94 | T 3.72 | Y 3.52 | A 3.45 | H 3.64 | K 3.74 | G 2.65 | V 3.47 | W 2.29 | N 2.59 | S 2.97 | Q 2.91 | R 2.81
T3: H 2.04 | D 2.86 | S 2.57 | K 2.84 | M 2.56 | F 2.75 | A 3.36 | L 2.92 | V 2.11 | I 3.33 | W 3.07 | Q 3 | E 1.72 | Y 4.1
T18: S 3.06 | A 2.23 | L 2.73 | K 2.31 | G 1.6 | R 2.09 | D 2.18 | E 2.78 | H 2.85 | F 3.03 | Y 2.68 | C 3.17 | P 3.36 | I 2.16
W16: Q 1.12 | S 2.58 | P 2.53 | C 3.44 | M 3.11 | R 2.51 | F 1.76 | V 3.96 | Y 3.76 | K 2.44 | H 1.8 | G 2.72 | A 3.29 | N 3.23 | I 3.15 | L 2.94
S9: T 2.5 | Q 4.14 | Y 2.66 | P 2.31 | E 4.07 | R 2.78 | M 2.49 | N 3.06 | G 2.5 | K 3.56 | L 3.52 | A 3.6 | W 4.47
A24: F 2.62 | M 1.89 | H 2.67 | L 3.17 | D 4.05 | C 3.39 | E 3.22 | K 2.88 | I 3.19
Q12: H 3.19 | M 2.6 | P 2.3 | I 3.51 | D 3.29 | C 3.71 | N 3.72 | S 2.75 | L 3.15 | E 3.39 | Y 1.89 | A 3.29 | G 2.9 | T 3.43 | F 2.61 | V 2.25
A14: P 2.29 | H 3 | T 2.73 | N 2.62 | D 4 | Q 4.22 | I 3.4 | K 3.08 | S 2.58 | C 3.07 | G 3.94 | L 4.29 | M 3.19 | Y 4 | F 2.76 | R 3.53 | E 1.9 | W 2.09
A8: D 3.72 | H 3.28 | F 3.99 | P 2.84 | S 3 | C 2.98 | E 2.8 | Y 3.74 | L 3.28 | G 3.09 | V 2.62 | N 4.58 | Q 3.65 | T 4.12 | I 4.22 | K 3.08
I5: T 2.35 | G 2.33 | M 3.44 | K 2.92 | R 1.6 | V 1.82 | A 2.65 | N 2.28 | F 2.81 | P 2.58 | H 3.05 | L 1.46
I4: Y 2.23 | A 3.22 | T 2.72 | V 2.35 | K 3.01 | D 3.54 | W 2.14 | G 2.7 | N 3 | H 3.04 | P 4.19 | F 2.9
M15: E 3.53 | T 3.17 | F 2.73 | V 3.45 | P 3.25 | I 2.79 | H 2.49 | W 3.1 | Y 2.97 | A 3.24 | S 2.48 | K 2.96 | L 2.53 | N 2.51 | Q 2.52 | D 3.28 | R 1.69
L21: R 3.98 | P 3.35 | I 2.71 | F 2.81 | D 3.61 | H 3.3 | C 3.36 | A 1.45 | N 2.05 | M 2.73 | S 3.45 | Q 2.64 | E 2.55 | K 3.7 | V 3.72 | T 3.02 | Y 3.71
A19: W 3.12 | Y 2.1 | E 2.73 | L 2.11 | T 3.07 | K 2.76 | D 2.3 | R 2.19 | H 1.58 | I 2.14 | P 4.62 | M 3.22 | V 2.43 | F 3.13
F6: T 4.09 | Q 2.14 | C 3.39 | S 1.02 | K 2.52 | D 3.81 | N 2.86 | E 2.76 | V 2.74 | A 4.41 | R 2.56 | P 2.59
L7: S 2.77 | F 1.87 | D 4.13 | G 4.01 | A 4.52 | R 3.25 | P 2.79 | M 2.79 | C 3.2 | E 2.34 | V 3.55 | I 3.83 | H 3.64 | W 3.1 | N 3.78 | K 2.48 | T 3.83 | Q 3.37
L13: Q 3.08 | V 3.31 | E 2.24 | R 1.63 | D 2.59 | Y 2.81 | N 3.15 | S 3.46 | H 3.13 | M 2.97 | C 2.76 | A 2.85 | I 2.5 | P 2.24 | F 3.07 | T 2.49
H22: L 1.86 | Y 2.5 | F 2.6 | C 3.02 | Q 2.97 | R 2.5 | P 3 | K 3.44 | A 3.84 | V 3.39 | W 3.14 | I 4.4 | N 2.87 | M 2.74 | G 3.04 | T 2.65
Q23: H 2.71 | W 3.32 | G 4.5 | P 3 | M 3.84 | I 2.95 | F 3.89 | E 2.09 | K 3.26 | N 4.37 | S 3.77 | V 3.24 | T 3.34
C2: V 3.64 | W 2.26 | M 2.59 | Q 2.54 | Y 2.89 | N 4.36 | P 1.95 | R 2.3

— the supplement of paper PMC10567573
